Data reported in PMC12416549 (2024).

T1: TNFR1 (Homo sapiens, UniProt P19438)
T1 chain: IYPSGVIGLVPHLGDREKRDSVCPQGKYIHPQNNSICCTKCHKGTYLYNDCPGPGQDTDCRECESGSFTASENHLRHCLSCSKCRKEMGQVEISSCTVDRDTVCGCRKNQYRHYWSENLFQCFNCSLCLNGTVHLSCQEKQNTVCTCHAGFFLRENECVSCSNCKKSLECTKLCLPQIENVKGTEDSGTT


Molecular target: T1, TNFR1
Test: yeast display SC50

Row | Binder | apparent Kd (screen) [nM]
1 | L27I (designed binder) MTLQELLREEALRRAEAEAFRYALELIAEKFPEQKEYLLDLAEEIESQIRSLSGVDVEDVRKFLDKEWAWVKELLAEHPAELAEVEAARAARLAELRAEVEAKVAA | 1.27
2 | T2V (designed binder) MVLQELLREEALRRAEAEAFRYALELLAEKFPEQKEYLLDLAEEIESQIRSLSGVDVEDVRKFLDKEWAWVKELLAEHPAELAEVEAARAARLAELRAEVEAKVAA | 0.593
3 | E25P (designed binder) MTLQELLREEALRRAEAEAFRYALPLLAEKFPEQKEYLLDLAEEIESQIRSLSGVDVEDVRKFLDKEWAWVKELLAEHPAELAEVEAARAARLAELRAEVEAKVAA | 2.25
4 | A15S (designed binder) MTLQELLREEALRRSEAEAFRYALELLAEKFPEQKEYLLDLAEEIESQIRSLSGVDVEDVRKFLDKEWAWVKELLAEHPAELAEVEAARAARLAELRAEVEAKVAA | 0.539
5 | E18W (designed binder) MTLQELLREEALRRAEAWAFRYALELLAEKFPEQKEYLLDLAEEIESQIRSLSGVDVEDVRKFLDKEWAWVKELLAEHPAELAEVEAARAARLAELRAEVEAKVAA | 0.446
6 | E18V (designed binder) MTLQELLREEALRRAEAVAFRYALELLAEKFPEQKEYLLDLAEEIESQIRSLSGVDVEDVRKFLDKEWAWVKELLAEHPAELAEVEAARAARLAELRAEVEAKVAA | 0.79
7 | P32I (designed binder) MTLQELLREEALRRAEAEAFRYALELLAEKFIEQKEYLLDLAEEIESQIRSLSGVDVEDVRKFLDKEWAWVKELLAEHPAELAEVEAARAARLAELRAEVEAKVAA | 0.49
8 | K30H (designed binder) MTLQELLREEALRRAEAEAFRYALELLAEHFPEQKEYLLDLAEEIESQIRSLSGVDVEDVRKFLDKEWAWVKELLAEHPAELAEVEAARAARLAELRAEVEAKVAA | 0.49
9 | L74F (designed binder) MTLQELLREEALRRAEAEAFRYALELLAEKFPEQKEYLLDLAEEIESQIRSLSGVDVEDVRKFLDKEWAWVKEFLAEHPAELAEVEAARAARLAELRAEVEAKVAA | 0.79
10 | M1Q (designed binder) QTLQELLREEALRRAEAEAFRYALELLAEKFPEQKEYLLDLAEEIESQIRSLSGVDVEDVRKFLDKEWAWVKELLAEHPAELAEVEAARAARLAELRAEVEAKVAA | 0.593
11 | Y22R (designed binder) MTLQELLREEALRRAEAEAFRRALELLAEKFPEQKEYLLDLAEEIESQIRSLSGVDVEDVRKFLDKEWAWVKELLAEHPAELAEVEAARAARLAELRAEVEAKVAA | 0.593
12 | E46G (designed binder) MTLQELLREEALRRAEAEAFRYALELLAEKFPEQKEYLLDLAEEIGSQIRSLSGVDVEDVRKFLDKEWAWVKELLAEHPAELAEVEAARAARLAELRAEVEAKVAA | 0.49
13 | D40C (designed binder) MTLQELLREEALRRAEAEAFRYALELLAEKFPEQKEYLLCLAEEIESQIRSLSGVDVEDVRKFLDKEWAWVKELLAEHPAELAEVEAARAARLAELRAEVEAKVAA | 0.79
14 | E81R (designed binder) MTLQELLREEALRRAEAEAFRYALELLAEKFPEQKEYLLDLAEEIESQIRSLSGVDVEDVRKFLDKEWAWVKELLAEHPARLAEVEAARAARLAELRAEVEAKVAA | 0.539

Second part, the binder after the results:

Row | apparent Kd (screen) [nM] | Binder
15 | 0.593 | L82C (designed binder) MTLQELLREEALRRAEAEAFRYALELLAEKFPEQKEYLLDLAEEIESQIRSLSGVDVEDVRKFLDKEWAWVKELLAEHPAECAEVEAARAARLAELRAEVEAKVAA
16 | 0.869 | L93E (designed binder) MTLQELLREEALRRAEAEAFRYALELLAEKFPEQKEYLLDLAEEIESQIRSLSGVDVEDVRKFLDKEWAWVKELLAEHPAELAEVEAARAAREAELRAEVEAKVAA
17 | 0.869 | R97P (designed binder) MTLQELLREEALRRAEAEAFRYALELLAEKFPEQKEYLLDLAEEIESQIRSLSGVDVEDVRKFLDKEWAWVKELLAEHPAELAEVEAARAARLAELPAEVEAKVAA
18 | 0.718 | E101Q (designed binder) MTLQELLREEALRRAEAEAFRYALELLAEKFPEQKEYLLDLAEEIESQIRSLSGVDVEDVRKFLDKEWAWVKELLAEHPAELAEVEAARAARLAELRAEVQAKVAA
19 | 0.593 | E101L (designed binder) MTLQELLREEALRRAEAEAFRYALELLAEKFPEQKEYLLDLAEEIESQIRSLSGVDVEDVRKFLDKEWAWVKELLAEHPAELAEVEAARAARLAELRAEVLAKVAA
20 | 0.49 | E84D (designed binder) MTLQELLREEALRRAEAEAFRYALELLAEKFPEQKEYLLDLAEEIESQIRSLSGVDVEDVRKFLDKEWAWVKELLAEHPAELADVEAARAARLAELRAEVEAKVAA
21 | 0.539 | V100W (designed binder) MTLQELLREEALRRAEAEAFRYALELLAEKFPEQKEYLLDLAEEIESQIRSLSGVDVEDVRKFLDKEWAWVKELLAEHPAELAEVEAARAARLAELRAEWEAKVAA
22 | 0.539 | A102D (designed binder) MTLQELLREEALRRAEAEAFRYALELLAEKFPEQKEYLLDLAEEIESQIRSLSGVDVEDVRKFLDKEWAWVKELLAEHPAELAEVEAARAARLAELRAEVEDKVAA
23 | 0.446 | E95I (designed binder) MTLQELLREEALRRAEAEAFRYALELLAEKFPEQKEYLLDLAEEIESQIRSLSGVDVEDVRKFLDKEWAWVKELLAEHPAELAEVEAARAARLAILRAEVEAKVAA
24 | 0.49 | L96Y (designed binder) MTLQELLREEALRRAEAEAFRYALELLAEKFPEQKEYLLDLAEEIESQIRSLSGVDVEDVRKFLDKEWAWVKELLAEHPAELAEVEAARAARLAEYRAEVEAKVAA
25 | 0.653 | A87W (designed binder) MTLQELLREEALRRAEAEAFRYALELLAEKFPEQKEYLLDLAEEIESQIRSLSGVDVEDVRKFLDKEWAWVKELLAEHPAELAEVEWARAARLAELRAEVEAKVAA
